Experimental data published in PMC7549790.

Target: Toll-like receptor 2 (mouse (endogenous in RAW264.7)) (UniProt Q9QUN7)
UniProt Q9QUN7, sequence (Q9QUN7 25-784): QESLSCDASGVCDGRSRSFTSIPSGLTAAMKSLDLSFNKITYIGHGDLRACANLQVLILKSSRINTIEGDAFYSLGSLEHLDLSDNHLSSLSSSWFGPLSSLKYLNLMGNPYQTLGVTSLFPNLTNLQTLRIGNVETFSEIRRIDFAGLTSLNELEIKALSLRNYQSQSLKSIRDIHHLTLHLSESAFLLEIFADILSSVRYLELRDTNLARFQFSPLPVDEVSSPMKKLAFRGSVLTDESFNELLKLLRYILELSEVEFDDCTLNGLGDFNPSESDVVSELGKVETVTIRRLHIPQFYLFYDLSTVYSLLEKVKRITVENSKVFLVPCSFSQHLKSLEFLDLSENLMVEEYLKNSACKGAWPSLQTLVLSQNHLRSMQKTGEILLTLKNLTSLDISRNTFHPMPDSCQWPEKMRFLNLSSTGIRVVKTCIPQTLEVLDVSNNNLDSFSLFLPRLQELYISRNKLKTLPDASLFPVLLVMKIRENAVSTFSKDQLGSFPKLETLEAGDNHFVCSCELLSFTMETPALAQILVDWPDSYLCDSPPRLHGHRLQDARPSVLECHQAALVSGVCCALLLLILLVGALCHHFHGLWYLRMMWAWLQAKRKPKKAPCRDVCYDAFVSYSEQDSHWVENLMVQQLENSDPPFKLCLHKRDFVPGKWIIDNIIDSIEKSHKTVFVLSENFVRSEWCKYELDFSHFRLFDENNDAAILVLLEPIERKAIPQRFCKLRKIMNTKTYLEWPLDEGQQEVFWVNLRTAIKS

**Q.** “recombinant Clonorchis sinensis molecular chaperone HscB (natural protein)” was tested. Which IL-10 secreted by RAW264.7 macrophages stimulated with 5~20 μg/ml rCsHscB for 12 h or 24 h (ELISA); highest at 20 μg/ml for 24 h (fold over DMEM-stimulated cells) did it give?
**A.** > 10
